This data set in a line: soluble on expression in E. coli; label from the status in PepcDB or PDB records.
Take “MERTVVETRYGRLRGEMNEGVFVWKGIPYAKAPVGERRFLPPEPPDAWDGVREATSFGPVVMQPSDPIFSGLLGRMSEAPSEDGLYLNIWSPAADGKKRPVLFWIHGGAFLFGSGSSPWYDGTAFAKHGDVVVVTINYRMNVFGFLHLGDSFGEAYAQAGNLGILDQVAALRWVKENIAAFGGDPDNITIFGESAGAASVGVLLSLPEASGLFRRAMLQSGSGSLLLRSPETAMAMTERILDKAGIRPGDRERLLSIPAEELLRAALSLGPGVMYGPVVDGRVLRRHPIEALRYGAASGIPILIGVTKDEYNLFTLTDPSWTKLGEKELLDRINREVGPVPEEAIRYYKETAEPSAPTWQTWLRIMTYRVFVEGMLRTADAQAAQGADVYMYRFDYETPVFGGQLKAAHALELPFVFHNLHQPGVANFVGNRPEREAIANEMHYAWLSFARTGDPNGAHLPEAWPAYTNERKAAFVFSAASHVEDDPFGRERAAWQGR”: the “soluble on expression in E. coli” value is listed as “soluble”.
The value for “KVLGDGSYLFEGKTSLSDVRHYLDLPENAFGELGDEVDTLSGLFLEIKQELPHVGDTAVYEPFRFQVTQMDKRRIIEIKIFPFERTWEVE” was “not soluble”; that for “MRGSHHHHHHGSASFLKKTMPFKTTIEGTVNGHYFKCTGKGEGNPFEGTQEMKIEVIEGGPLPFAFHILSTSCMYGSKTFIKYVSGIPDYFKQSFPEGFTWERTTTYEDGGFLTAHQDTSLDGDCLVYKVKILGNNFPADGPVMQNKAGRWEPGTEIVYEVDGVLRGQSLMALKCPGGRHLTCHLHTTYRSKKPASALKMPGFHFEDHRIEIMEEVEKGKCYKQYEAAVGRYCDAAPSKLGHN” was “soluble”; that for “YVLAVTACPTGIAHTYMARDALKKQAEKMNIKIKVETNGSSGIKNHLTEQDIERATGIIVAADVHVETDRFDGKNVVEVPVADGIKRPEELINTALDTNRKPF” was “not soluble”.
Regarding “MGSDKIHHHHHHMVLALNYNMHGVNIRSENAAKPHTMPSRYLCEYIRSIEKNGHALDFGCGKLRYSDELISKFDEVTFLDSKRQLEREQIIRGIKTKIIDYVPRYYKNANTVAFEDVDKIIGGYDFILCSNVLSAVPCRDTIDKIVLSIKRLLKSGGETLIVNQYKSSYFKKYETGRKHLYGYIYKNSKSVSYYGLLDELAVQEICSSHGLEILKSWSKAGSSYVTVGSCNAI”, the “soluble on expression in E. coli” value is “not soluble”.
In the case of “MSNANQKITTFLMFEGKAEEAMNFYTSLFDQSEIVSISRYDENGPGKEGTVIHATFTLNGQEFMCIDSYVNHNFTFTPAMSLYVTCETEEEIDTVFHKLAQDGAILMPLGSYPFSKKFGWLNDKYGVSWQLTLAE”, the “soluble on expression in E. coli” value is recorded as “soluble”.
Next, “MRTLPSVLAAHLASGATTLCFAWRVTRRDGLVTGFTDHDRDLVVDGVTCKAASGISGSQSTLASGLSVTGAEVSGALSHDALSEDDLAAGLYDGAAIDHLLVNWQDPAQVLLLRRGTIGEVRAQDGVFTAEIRSLSDGLNQTRGRLLSSSCDADLGDARCGVDLTLPAHAASATVVAVEGALSLRVTGLSAFAQGAFARGRARLSSGANAGFVTEVKAHLVDAEGVLLRLWQRPPFAVAEGDGITLTAGCDKQLATCRDRFSNALNFRGFPHMPGNDFVIAVAIAGEGGYDGSLLE”: “soluble”.
The value for “MPLTGEYEPSPSKWAADQAELMESTDGAKGTTLGGRPVVLLTTRGAKSGKIRKTPLMRVEHDGTYAIVASLGGAPKNPVWYYNVKAEPHVELRDGSATQDMVAREVTGDERATWWDRAVAAFPDYAEYQKKTDREIPVFVLEPA” was “not soluble”.
For the sequence “MSDSRYKVDVSVVTRFLAEQSQPEQNRFAFAYTITVHNNGELPAKLLSRHWIITDGDGHVEEVRGEGVVGQQPLIKVGQSHTYSSGTVMTTQVGNMQGSYQMLAEDGKRFDAVIEPFRLAVPGSLHLEHHHHHH”, the “soluble on expression in E. coli” value is recorded as “soluble”.
The value for “MGKVYIVGAGPGDPDLITVKGLKCIEKADVILYDRLVNKELLSYAKPEADLIYCGKLPNYHTMKQETINTFLIKYAKKGKIVTRLKGGDPFVFGRGGEEAEALAKQGVPFEIVPGISAGIAAPAYAGIPVTHRDASASFAIVTGHRKEDAAEEVKWGNLAKGVETLAVYMGVSNLPYICEQLMKHGKDKSTPAAIIERGTTSMQRTVVGTLGTIVDVAKKEQIQNPSMIVIGEVVRFREKIHWFEKQTESTYQVSGVL” was “not soluble”; that for “MEAVHCFRCYKFPSKQIEFYLTNCMHMFCIECERLCHPPEEEPLKCIQCSKTPIRIVKMGPELPMTIKSMFTPISEEINQYTRDLTRVLTFQHRQRASLSTFLERKVAAFDRLRDAYSEEKTKKEHYKKQLEEAYHLLKSKEHEISKLKKQLAEQAPPPQTPPRSNSLKVASSRSLETPSMMRVFSDSMYETPVQIQRRFTKAQAKAEAEAEAPAKSPGSKAQTTKCTSNYQSHPPASFETPIHHPPKTSMGFTTPANPPHMFPYLKKHEAQREKHKEHRNSQ” was “not soluble”.
“MGSDKIHHHHHHMEGGAMMLLEVKNVTKKFGDKVVLKNISFTLEEGESLGILGKSGAGKSVLLHMLRGMDGYEPTEGQIIYHVSYCEKCGYVDVPSKAGTPCKKCGNELKKIEVDFWNDKKYTYNLKRKIAIMLQRTFALYGEKTVLENILEALHQAGYEGKEAIDMALKLIKMVKLEHRITHIARDLSGGEKQRVVLARQIAKEPFIFLADEPTGTLDPQTAKLVHSALKELVIKNKISLILTSHWPEVIAELTEKAIWLDKGEIIMEGTSEEVVNKFMETVKEFKKPETEVEIKEDIIKLENVSKHYCSVERGVIKAVDNVTLNIREREIFGLVGTSGAGKTTLAKIIAGVLPPSKGKYWFRVGDEWVDMTKPGPMGRGRAKRYIGILFQEYALYPHRTILENLTEAIGLELPDEFARMKAVYTLVSVGFSEEEAEEILDKYPHELSVGERHRCALAQVLIKEPRVVILDEPTGTMDPITRNTVAESIHKSRIELEQTYIIVSHDMDFVLNVCDRAGLMRNGKLIKVGKPEEIVALLTEEEKQEMFGQK”: the “soluble on expression in E. coli” value was “not soluble”.
Turning to “MTTAITPDKKKLVSPKPTKTTSDKSKTKPRRSSKTSKKRKSKKGLFGCCAKKRKTKRSKKSAKRTKRSAPKKAPKKAPMKAPSKPAAKLVPQQAQASLQKPIQSGIVDADATVKTVVPRPPTPIPPTGVKPEPAPRSEPLYQPRSVSSTTPRTSATTGTTEQMVTAPATLPPPSAESKHLPQDPPGDASSPRVQRQYTAEKYSKEDQDDDDQKDLRKSVAYPSHKFFMTQYVKDECRVRRWVYEDSVPLMMESNMKHMLRMASNRIAACQSDKARRCDMMKDLNEMTEILDGNF”, the “soluble on expression in E. coli” value is “not soluble”.
The value for “MQLQPFSQACENNKVPILAVLKSAFANTTRVLEIGSGTGQHAVYFATNLPQLFWQTSDQAEYLEGIKARCLLQGHQLGINNLGFPITLDVTAPWPVNGTHIDAVFSANTLHIMSKSMVEAFFNGLGEYLPQLNTLCIYGPFNYQGHYTSDSNRQFDHFLKQRDSESGIRDIEWIIALAQAQGLTLVEDIAMPTNNRLLHFKHLLALEHHHHHH” was “not soluble”; that for “MKQVLVIKNERSSAKKIVSGLTQEGYFILKLHNENEGLNIIYEQDWDIIILDWDSLSISGPEICRQIRLVKTTPIIIVTDNISSKDCVAGLQAGADDYIRKPFAKEELVARVQAILRRSDCNQQKEINFFQFKDLFVDASSNIVKKGGKNLSLTKREYDLLVFLIKNKNTILSREMLLNQVWGYNIVVNPNVVDLYIGYVRKKLKCEKKERYIQTIHGRGYSMIE” was “not soluble”; that for “MGSDKIHHHHHHMGLLTNLKDSISRAASTLFSEEDPKRIGIYGPPNAGKTTLANRIARDWTGDAVGPESHVPHETRRARRKENVEIERDGKKVTIDIVDTPGVTTKVDYTEFLEHDMEKDDAVRRSREATEGVAEAMHWLREDVDGVIYVLDSATDPFTQVNTMLIGIIESQDLPVLILANKIDLEESSVQRIRNAYPQHETIPLSALEGDNMDEVYDKIAEYFG” was “not soluble”.
Next, “MRFLSLLCPPVERAAVMRPPYTTHLQRVPLMRKSLLALSLLAATSAPVLAADYSDGDIHKNDYKWMQFNLMGAFDELPGKSSHDYLEMEFGGRSGIFDLYGYVDVFNLATNKSSDKVGDPKIFMKFAPRMSLDAFTGVDMSFGPVQEVYVASLFEWDGTDFKTNAFSVNNQKIGLGSDVMVPWFGKVGLNLYGTYDGNRKDWNGFQISTNWFKPFYFFENGSFISYQGYIDYQFGLKDEYSTASNGGAMFNGIYWHSDRFAVGYGLKGYKDVYGIKDTDGFKSTGFGHYVAVTYKF”: “not soluble”; “MSTENDVSEENNSELDDVEDAKQDDRRRSTTVIMTMNVTTVPATESEGVRRNGSVRRRLSKQNATIEEPISLLSISDSPSENSDTTVPCIEEHPEEGKEEEKPAESSDVSKLRPPGLAQNKLWSTSKSLSRESTGTEYSDRSGIDLRNFVDRTLHKSEEDRKQLLEFEKQLKELILDDSTQSKRFELPSSYHRMLLHRCAAWFGLDHNVTNKQTDIVVNKSEKTKIPDDNFTDYIRHDNYVEDRLKRQNTCGSRKELHHMESFGDHSTSQYGSQASLNHDLLMMRRAQSFDVAAVTGPSVIQPQSPHHVRGLPMRQLSLNCPQQSMVTAPMSGPQGHQWAPQRSFDCSNNSYLCTGKHPMMRKAESFGGMANGISHGCYEQSVPVVCGTPPSVMVHHHHHHAHIQQPPTSNYTGYQVFEEMSMPSSNYQEPGMCSPGGTYYEYVPQPVVQPQQYARPIRYMPQDYRRPQGVQYMYGPPPPQQYMQYQPMVHPEVEVIVDPVQTQPFPQVSHFVLPDQQQGYSSSHQAETANSFIKASIDGGYGSMNQDVENAEKVEEV”: “not soluble”; “MYKVDSPDAVDFINHQEIIETLEYARTHRNDRELIRNLIEKARLCKGLTHREAAILLECAEEDLTKEIFHLAKEIKQKFYGNRIVMFAPLYLSNYCVNGCVYCPYHLKNKTIIRKKLTQEEICREVIALQDMGHKRLALEAGEDPVRNSIDYILESIRTIYSIHHKNGAIRRVNVNIAATTVENYRKLKDAGIGTYILFQETYHKENYEQLHPTGPKSNYAYHTEAMDRAMQGGIDDVGMGVLFGLNTYRYDFVGLLMHAEHLEAVYGVGPHTISVPRICSADDINAEDFENAISDEIFQKIVAVIRISVPYTGMIISTRESQKTREKVLDLGISQISGGSRTSVGGYAEAETPEENSAQFDVSDTRTLDEVVNWLLKLGYIPSFCTACYRAGRTGDRFMSLVKSGQIANCCSPNALITLQEYLEDYASEETKARGVAMIKQEMQHIPNPKIRERALENLKQIAAGERDFRF”: “not soluble”.
The value for “MENQLTKSVEERTFQYQDSLPSLPVPALEESLKKYLESVKPFANEDEYKKTEEIVQKFQEGAGKRLHQKLLERARGKRNWLEEWWLNVAYLDVRIPSQLNVNFVGPCPHFEHYWPAREGTQLERGSMMLWHNLNYWQLLRREKLPVHKSGNTPLDMNQFRMLFSTCKVPGITRDSIMNYFKTESEGHCPTHIAVLCRGRAFVFDVLHEGCLITPPELLRQLTYIHKKCSNEPVGPSIAALTSEERTRWAKAREYLISLDPENLTLLEKIQTSLFVYSIEDSSPHATPEEYSQVFEMLLGGDPSVRWGDKSYNLISFANGIFGCCCDHAPYDAMVMVNIAHYVDERVLETEGRWKGSEKVRDIPLPEELVFTVDEKILNDVSQAKAQHLKAASDLQIAASTFTSFGKKLTKEEALHPDTFIQLALQLAYYRLHGRPGCCYETAMTRYFYHGRTETVRSCTVEAVRWCQSMQDPSASLLERQQKMLEAFAKHNKMMKDCSHGKGFDRHLLGLLLIAKEEGLPVPELFEDPLFSRSGGGGNFVLSTSLVGYLRVQGVVVPMVHNGYGFFYHIRDDRFVVACSSWRSCPETDAEKLVQMIFHAFHDMIQLMNTAHL” was “soluble”.
